Sequences and labels used below:
B1: LINE1-mini (parent)
chain: GGCAGAGCUCAACACAGCGUGGCAAAGUGGCUGUGGCUAGACUGCC

The variants in the data set derive from B1. As to the kind of experiment: self-cleavage, relative activity (ratio to wild type); higher = more cleavage; in vitro, sequencing; the parent is a self-cleaving ribozyme.
GGCAGAGCUCAACACUGCGUGGCAAAGUGGCUGUGGCUAGACUGCC [A16U]: the self-cleavage is 0.15. The result for GGCAGAGCUCAACACGGCGUGGCAAAGUGGCUGUGGCUAGACUGCC [A16G] reads 0.61; that for GGCAGAGCUCAACACGGCGUGGCAAAGUGGCUCUGGCUAGACUGCC [A16G G33C], 0.05; that for GGCAGAGCUCAACACGGCGUGGCAAAGUGGCUUUGGCUAGACUGCC [A16G G33U], 0.04. For GGCAGAGCUCAACACGGCGUGGCAAAGUGGCUAUGGCUAGACUGCC [A16G G33A], the self-cleavage was 0.03. With GGCAGAGCUCAACACGGCGUGGCAAAGUGGCUGUGGCUAGACUACC [A16G G44A], the self-cleavage stood at 0.25. Turning to GGCAGAGCUCAACACGGCGUGGCAAAGUGGCUGUGGCUAGACUCCC [A16G G44C], the self-cleavage came out at 0.19. To GGCAGAGCUCAACACGGCGUGGCAAAGUGGCUGUGGCUAGACUUCC [A16G G44U] belongs 0.05; to GGCAGAGCUCAACACGGCGUGGCAAAGUGGCUGUGGCUAGACUGGC [A16G C45G], 0.11.

GGCAGAGCUCAACACGGCGUGGCAAAGUGGCUGUGGCUAGACUGUC [A16G C45U]: the self-cleavage is 0.45. As to GGCAGAGCUCAACACGGCGUGGCAAAGUGGCUGUGGCUAGACUGAC [A16G C45A], the self-cleavage is 0.14. Regarding GGCAGAGCUCAACACGGCGUGGCAAAGUGGGUGUGGCUAGACUGCC [A16G C31G], the self-cleavage was 0.02.

Take GGCAGAGCUCAACACGGCGUGGCAAAGUGGUUGUGGCUAGACUGCC [A16G C31U]: the self-cleavage is 0.03. Regarding GGCAGAGCUCAACACGGCGUGGCAAAGUGGAUGUGGCUAGACUGCC [A16G C31A], the self-cleavage is 0.03.

Turning to GGCAGAGCUCAACACGACGUGGCAAAGUGGCUGUGGCUAGACUGCC [A16G G17A], the self-cleavage came out at 0.15. To GGCAGAGCUCAACACGUCGUGGCAAAGUGGCUGUGGCUAGACUGCC [A16G G17U] belongs 0.32; to GGCAGAGCUCAACACGCCGUGGCAAAGUGGCUGUGGCUAGACUGCC [A16G G17C], 0.31; to GGCAGAGCUCAACACCGCGUGGCAAAGGGGCUGUGGCUAGACUGCC [A16C U28G], 0.07. Regarding GGCAGAGCUCAACACCGCGUGGCAAAGAGGCUGUGGCUAGACUGCC [A16C U28A], the self-cleavage stood at 0.18. Consider GGCAGAGCUCAACACCGCGUGGCAAAGCGGCUGUGGCUAGACUGCC [A16C U28C], for which the self-cleavage worked out at 0.03. GGCAGAGCUCAACACGGCGUGGCAAAGUGGCUGCGGCUAGACUGCC [A16G U34C]: the self-cleavage was determined as 0.08. Take GGCAGAGCUCAACACGGCGUGGCAAAGUGGCUGGGGCUAGACUGCC [A16G U34G]: the self-cleavage is 0.08. For the variant GGCAGAGCUCAACACGGCGUGGCAAAGUGGCUGAGGCUAGACUGCC [A16G U34A], the self-cleavage was found to be 0.02. For the variant GGCAGAGCUCAACACGGCGCGGCAAAGUGGCUGUGGCUAGACUGCC [A16G U20C], the self-cleavage came out at 0.37.

Turning to GGCAGAGCUCAACACGGCGGGGCAAAGUGGCUGUGGCUAGACUGCC [A16G U20G], the self-cleavage was 0.16.

In the case of GGCAGAGCUCAACACGGCGAGGCAAAGUGGCUGUGGCUAGACUGCC [A16G U20A], the self-cleavage is 0.16. Turning to GGCAGAGCUCAACACGGCGUGGCAAAGUGGCUGUGGCAAGACUGCC [A16G U38A], the self-cleavage is 0.4.

In the case of GGCAGAGCUCAACACGGCGUGGCAAAGUGGCUGUGGCGAGACUGCC [A16G U38G], the self-cleavage was determined as 0.01. Turning to GGCAGAGCUCAACACGGCGUGGCAAAGUGGCUGUGGCCAGACUGCC [A16G U38C], the self-cleavage stood at 0.18. The result for GGCAGAGCUCAACACCGCGUGGCAAAGUGGCGGUGGCUAGACUGCC [A16C U32G] reads 0.4.

For the variant GGCAGAGCUCAACACCGCGUGGCAAAGUGGCAGUGGCUAGACUGCC [A16C U32A], the self-cleavage was found to be 0.13. Consider GGCAGAGCUCAACACCGCGUGGCAAAGUGGCCGUGGCUAGACUGCC [A16C U32C], for which the self-cleavage turned out to be 0.09. Consider GGCAGAGCUCAACACGGCGUGGAAAAGUGGCUGUGGCUAGACUGCC [A16G C23A], for which the self-cleavage stood at 0.56. For the variant GGCAGAGCUCAACACGGCGUGGUAAAGUGGCUGUGGCUAGACUGCC [A16G C23U], the self-cleavage worked out at 0.82. On to GGCAGAGCUCAACACGGCGUGGGAAAGUGGCUGUGGCUAGACUGCC [A16G C23G], for which the self-cleavage is 0.64. Take GGCAGAGCUCAACACGGCGUGGCAAAGUGGCUGUGGCUAGAAUGCC [A16G C42A]: the self-cleavage worked out at 0.07. The result for GGCAGAGCUCAACACGGCGUGGCAAAGUGGCUGUGGCUAGAGUGCC [A16G C42G] reads 0.03. Turning to GGCAGAGCUCAACACGGCGUGGCAAAGUGGCUGUGGCUAGAUUGCC [A16G C42U], the self-cleavage is 0.09. GGCAGAGCUCAACACGGCGUAGCAAAGUGGCUGUGGCUAGACUGCC [A16G G21A]: the self-cleavage was 0.7. Take GGCAGAGCUCAACACGGCGUCGCAAAGUGGCUGUGGCUAGACUGCC [A16G G21C]: the self-cleavage was 0.34. As to GGCAGAGCUCAACACGGCGUUGCAAAGUGGCUGUGGCUAGACUGCC [A16G G21U], the self-cleavage was 0.48. For the variant GGCAGAGCUCAACACGGCGUGGCCAAGUGGCUGUGGCUAGACUGCC [A16G A24C], the self-cleavage stood at 0.13. The result for GGCAGAGCUCAACACGGCGUGGCUAAGUGGCUGUGGCUAGACUGCC [A16G A24U] reads 0.62; that for GGCAGAGCUCAACACGGCGUGGCGAAGUGGCUGUGGCUAGACUGCC [A16G A24G], 0.16. The result for GGCAGAGCUCAACACGGCGUGGCAAAGGGGCUGUGGCUAGACUGCC [A16G U28G] reads 0.36; that for GGCAGAGCUCAACACGGCGUGGCAAAGCGGCUGUGGCUAGACUGCC [A16G U28C], 0.44.

For GGCAGAGCUCAACACGGCGUGGCAAAGAGGCUGUGGCUAGACUGCC [A16G U28A], the self-cleavage worked out at 0.53. GGCAGAGCUCAACACGGCGUGGCAAAGUGGCUGUGGCUAGCCUGCC [A16G A41C]: the self-cleavage came out at 0.11. Take GGCAGAGCUCAACACGGCGUGGCAAAGUGGCUGUGGCUAGUCUGCC [A16G A41U]: the self-cleavage was found to be 0.16. On to GGCAGAGCUCAACACGGCGUGGCAAAGUGGCUGUGGCUAGGCUGCC [A16G A41G], for which the self-cleavage came out at 0.15. With GGCAGAGCUCAACACCGCGUGGCAAAGUGGCUGUGGCUAGACAGCC [A16C U43A], the self-cleavage worked out at 0.04. Take GGCAGAGCUCAACACCGCGUGGCAAAGUGGCUGUGGCUAGACCGCC [A16C U43C]: the self-cleavage was determined as 0.08.

Consider GGCAGAGCUCAACACUGCGUGGCGAAGUGGCUGUGGCUAGACUGCC [A16U A24G], for which the self-cleavage was determined as 0.1.

For the variant GGCAGAGCUCAACACUGCGUGGCCAAGUGGCUGUGGCUAGACUGCC [A16U A24C], the self-cleavage stood at 0.1. To GGCAGAGCUCAACACGGCGUGGCAAAGUGGCUGUGUCUAGACUGCC [A16G G36U] belongs 0.04.

With GGCAGAGCUCAACACGGCGUGGCAAAGUGGCUGUGACUAGACUGCC [A16G G36A], the self-cleavage is 0.53.

The values are drawn from the RNAGym collection of RNA variant scans (doi:10.7554/elife.90254).
